Experiment [1] concerns the target T1, Fyn SH3 (Homo sapiens, UniProt P06241). The experiment in a line: NMR titration.
The target of experiment [2] is T1, Fyn SH3. The experiment in a line: ITC. (In ITC the heat of successive injections is recorded.)

T1 sequence (P06241 79-146): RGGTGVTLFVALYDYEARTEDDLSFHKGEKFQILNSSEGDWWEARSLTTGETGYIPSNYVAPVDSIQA

Turning to ERPGSKEEVDEDRDV [Tau 210-224], the affinity in experiment [1], expressed as Kd, was 163 µM. On the same count and under the same terms, next, PSGTGPEDTEGGRHA [Tau 170-184]: 127 µM.

B1: Tau 151-243 (protein)
chain: SGMPGAPLLPEGPREATRQPSGTGPEDTEGGRHAPELLKHQLLGDLHQEGPPLKGAGGKERPGSKEEVDEDRDVDESSPQDSPPSKASPAQDG
On to B1, for which binding in experiment [2] was characterised by a dissociation constant (Kd) of 11 µM.

QDGRPPQTAAREATS [Tau 241-255]: the Kd (commonly the free concentration of one partner at which half of the binding sites on the other are occupied at equilibrium, for simple one-to-one binding) in experiment [1] came to 327 µM.

Values taken from PMC12232886 (2025).
